What was measured:
[1] = system: C[C@H](C=O)[C@H]1CC[C@H]2[C@@H]3CCC4=CC(=O)CC[C@]4(C)[C@H]3CC[C@]12C; assay: purified protein; conditions: 1 mM NAD+, 100 mM HEPES pH 7.5, 25 °C
O=Cc1ccccc1 [2] = assay: purified protein; conditions: 1 mM NAD+, 100 mM HEPES pH 7.5, 25 °C
[3] = system: T1, C[C@H](C=O)[C@H]1CC[C@H]2[C@@H]3CCC4=CC(=O)CC[C@]4(C)[C@H]3CC[C@]12C; assay: purified protein; format: biochemical, Pseudomonas putida; conditions: 1 mM NAD+, 100 mM HEPES pH 7.5, 25 °C
T1 construct: full-length, His tag (pET28a, NdeI/HindIII), E. coli BL21 LOBSTR

O=Cc1ccccc1 [4] = system: T2, O=Cc1ccccc1; assay: purified protein; format: biochemical, Pseudomonas putida; conditions: 1 mM NAD+, 100 mM HEPES pH 7.5, 25 °C
T2 construct: full-length, His tag (pET28a, NdeI/HindIII), E. coli BL21 LOBSTR

[5] = molecular target: steroid aldehyde dehydrogenase (Sad) from Caldimonas tepidiphilia (Caldimonas tepidiphilia); assay: crystal structure; X-ray, 1.8 Å; sitting-drop vapor diffusion at 4 °C, 20 mg/mL Sad_(Ctepid), 40% MPD, 3% PEG 8000, 0.1 M sodium cacodylate pH 6.5, 10% glycerol; interface analysed with PISA

Substance	Km [1] [µM]	kcat [1] [s⁻¹]	kcat/Km [1] [M⁻¹ s⁻¹]	Km (O=Cc1ccccc1 [2]) [µM]	also measured
PpBADH (Pseudomonas putida; F400A)	4.35 ± 0.167	0.00284 ± 3.34e-05	653 ± 75.1	59.5 ± 2.59	–
PpBADH (Pseudomonas putida; F400A/L125T)	–	–	–	–	Km [3]: 1.73 ± 0.0801 µM; kcat [3]: 0.0431 ± 0.000719 s⁻¹; kcat/Km [3]: 24900 ± 1230 M⁻¹ s⁻¹; Km (O=Cc1ccccc1 [4]): 40.97 ± 2.58 µM; kcat (O=Cc1ccccc1 [4]): 0.037 ± 0.000756 s⁻¹; kcat/Km (O=Cc1ccccc1 [4]): 903 ± 59.8 M⁻¹ s⁻¹
PpBADH (Pseudomonas putida; L125T)	18.94 ± 1.07	0.0291 ± 0.000667	1540 ± 36.8	3.18 ± 0.216	–
PpBADH (Pseudomonas putida; Y121A)	–	–	–	700.4 ± 31.9	–
SadCtest (Comamonas testosteroni)	1.93 ± 0.118	3.57 ± 0.0818	–	–	–
steroid aldehyde dehydrogenase (Sad) from Caldimonas tepidiphilia (enzyme)	–	–	–	–	stoichiometry N [5]: 2
